# From US20240026024A1 (SHANGHAI HUAOTA BIOPHARMACEUTICAL, published 2024)
# Where a chain is given by its changes, count along the chain named.
# T1: human CD73 on the cell surface (human, UniProt P21589 27-549)
# T1 sequence: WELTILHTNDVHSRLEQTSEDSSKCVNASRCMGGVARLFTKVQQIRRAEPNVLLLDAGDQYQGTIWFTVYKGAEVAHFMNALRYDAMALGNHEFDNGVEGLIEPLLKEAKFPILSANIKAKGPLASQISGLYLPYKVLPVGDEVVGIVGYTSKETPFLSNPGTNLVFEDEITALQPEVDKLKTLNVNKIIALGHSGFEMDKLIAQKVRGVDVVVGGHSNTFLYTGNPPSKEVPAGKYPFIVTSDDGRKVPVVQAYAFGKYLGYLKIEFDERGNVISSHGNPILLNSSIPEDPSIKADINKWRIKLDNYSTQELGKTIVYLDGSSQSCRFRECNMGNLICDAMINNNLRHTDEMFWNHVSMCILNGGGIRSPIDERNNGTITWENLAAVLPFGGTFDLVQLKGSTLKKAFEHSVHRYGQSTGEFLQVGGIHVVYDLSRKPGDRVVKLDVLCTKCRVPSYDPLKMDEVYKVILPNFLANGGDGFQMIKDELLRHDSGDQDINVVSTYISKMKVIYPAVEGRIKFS
# T2: mouse CD73/NT5E (ACRO Biosystems, Cat No. CD3-M52H9) (mouse, UniProt Q61503 29-551)
# T2 construct: Bought protein
# T2 sequence (looked up): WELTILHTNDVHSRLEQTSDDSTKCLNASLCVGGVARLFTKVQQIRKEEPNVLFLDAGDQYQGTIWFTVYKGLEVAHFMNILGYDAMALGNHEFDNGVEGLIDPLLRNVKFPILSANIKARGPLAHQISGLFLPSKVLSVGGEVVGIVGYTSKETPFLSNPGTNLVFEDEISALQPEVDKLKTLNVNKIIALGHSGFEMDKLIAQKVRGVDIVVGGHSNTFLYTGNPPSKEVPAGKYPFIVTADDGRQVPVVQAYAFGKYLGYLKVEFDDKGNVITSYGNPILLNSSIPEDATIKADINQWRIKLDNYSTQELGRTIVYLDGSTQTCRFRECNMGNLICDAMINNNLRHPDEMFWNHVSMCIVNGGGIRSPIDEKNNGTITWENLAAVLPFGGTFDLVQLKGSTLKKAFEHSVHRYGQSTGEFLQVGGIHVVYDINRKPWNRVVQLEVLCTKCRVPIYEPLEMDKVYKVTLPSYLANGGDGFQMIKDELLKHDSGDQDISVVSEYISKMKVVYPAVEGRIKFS
# T3: rat CD73 (Novoprotein, Cat No. CB16) (rat, UniProt P21588 29-551, limits assumed)
# T3 construct: Bought protein
# T3 sequence (looked up): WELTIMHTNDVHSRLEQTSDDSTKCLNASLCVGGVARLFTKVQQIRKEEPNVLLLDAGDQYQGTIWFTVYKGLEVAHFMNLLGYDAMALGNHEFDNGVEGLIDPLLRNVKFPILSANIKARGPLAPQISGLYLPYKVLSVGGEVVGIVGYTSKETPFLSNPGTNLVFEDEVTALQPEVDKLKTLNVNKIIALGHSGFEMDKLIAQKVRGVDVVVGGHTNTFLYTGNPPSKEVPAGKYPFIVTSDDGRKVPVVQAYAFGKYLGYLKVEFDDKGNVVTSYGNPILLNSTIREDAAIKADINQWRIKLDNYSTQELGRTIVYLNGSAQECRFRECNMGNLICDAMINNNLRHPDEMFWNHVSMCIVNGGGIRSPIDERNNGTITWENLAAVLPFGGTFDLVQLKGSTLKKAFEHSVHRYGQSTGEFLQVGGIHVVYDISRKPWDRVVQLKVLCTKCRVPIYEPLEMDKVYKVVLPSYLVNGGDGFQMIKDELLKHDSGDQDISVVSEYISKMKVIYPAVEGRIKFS
# B1: 900581 (antibody, human IgG1, V domains shown)
# VH: EVQLVESGGGLVKPGGSLKLSCAASGFTFSKYAMSWVRQSPEKRLEWVAEISSGGGYINYPDTVTGRFTISRDNAKNTLYLEMSSLRSGDTAMYYCARAIYYYGSSYNYYAMDYWGQGTSVTVSS
# VL: DIVMTQSHKFMSTSVGDRVSITCKASQDVGTAEAWYQQKPGQSPKLLIYWASTRHTGVPDRFTGSGSGTDFTLTIGNVQSEDLADYFCQQYSSYPLTFGGGTKLEIK
# B2: 900695 (antibody, V domains shown)
# VH: QVQLVESGGGLVKPGGSLRLSCAASGFTFSKYAMSWVRQAPGKGLEWVAEISSGGGYINYADSVTGRFTISRDNAKNSLYLQMNSLRAEDTAVYYCARAIYYYGSSYNYYAMDYWGQGTTVTVSS
# VL: DIQMTQSPSSLSASVGDRVTITCRASQDVGTAEAWYQQKPGKAPKLLIYWASTRHTGVPSRFSGSGSGTDFTLTISSLQPEDFATYYCQQYSSYPLTFGQGTKLEIK
# notes: Constant regions are not restated
# B3: 900696 (antibody, V domains shown)
# VH: B2 VH with V37I, T65K
# VL: B2 VL with R54L, H55Q, T56S
# notes: as for B2
# B4: 900698 (antibody, V domains shown)
# VH: B2 VH with V37I, T65K
# VL: B2 VL
# notes: as for B2
# B5: 900697 (antibody, V domains shown)
# VH: B2 VH
# VL: B2 VL with R54L, H55Q, T56S
# notes: as for B2
# Target: T1, human CD73 on the cell surface
# Assay: cell-based or functional assay
row,"EC50(µg/mL), inhibition of enzyme activity of CD73 on CHOK1-huCD73-3F4 cells",Binder
1,0.944 µg/mL,B1

# Target: T2, mouse CD73/NT5E (ACRO Biosystems, Cat …)
# Assay: SPR (Biacore T200), antibody captured on protein A chip
# Experimental: (§1) The temperatures of the sample chamber and flow path were set at 25° C. The protein A chips separately captured the antigen-binding proteins as ligands, which were immobilized at about 100 RU. […] Ten mM Glycine, pH 1.5, was regenerated for 60 s at a flow rate of […] for multiple cycle kinetic detection. The binding rate constant (ka), dissociation rate constant (kd) and dissociation equilibrium rate constant (KD) were fitted using the Fit local mode of a 1:1 binding model.
row,binding result,Binder
1,no binding (tested: up to 50 nM analyte),B2
2,no binding (tested: up to 50 nM analyte),B3
3,no binding (tested: up to 50 nM analyte),B4
4,no binding (tested: up to 50 nM analyte),B5
5,no binding (tested: up to 50 nM analyte),B1

# Target: T3, rat CD73 (Novoprotein, Cat No. CB16)
# Assay: as above
# Experimental: as §1
row,binding result,Binder
1,no binding (tested: up to 50 nM analyte),B2
2,no binding (tested: up to 50 nM analyte),B3
3,no binding (tested: up to 50 nM analyte),B4
4,no binding (tested: up to 50 nM analyte),B5
5,no binding (tested: up to 50 nM analyte),B1

# Target: T1, human CD73 on the cell surface
# Assay: flow cytometry on CHOK1-huCD73-3F4 cells, PE anti-human Fc
# Experimental: All the antigen-binding proteins were diluted to 30 μg/ml with PBS solution containing 1% BSA (1% BSA/PBS), diluted at 3-fold into 11 gradients and then added to a 96-well U-shaped plate at 20 μL/well, and negative control (1% BSA/PBS was added only) was set up simultaneously. The suspension of human CD73-expressing cells (CHOK1-huCD73-3F4, Huabo Biopharm) in the logarithmic growth phase were collected and centrifuged at 1000 rpm for 5 min, and the culture medium was discarded; then the cells were resuspended with 1% BSA/PBS to a viable cell density of 1×10⁶/mL, and then added into the 96-well U-shaped plate already added with anti-CD73 antigen-binding protein at 20 μL (2×10⁴ cells)/well for reaction at room temperature for 30 min. […] After the reaction, the cells in the 96-well U-shaped plate were resuspended with 1% BSA/PBS and centrifuged at 300 g for 3 min and the supernatant was discarded; after washing in this manner 3 times, and the cells were finally resuspended with 1% BSA/PBS at 100 μL/well, and the fluorescence intensity of the PE channel was measured with a flow cytometer (BD, #Canto II).
row,EC50,Binder
1,0.426 µg/mL,B1
